Source: patent US6664090B1, “Carboxylesterase nucleic acid molecules, proteins and uses thereof” (Heska Corporation, priority 1996, dated 2003)

Tests used:
[1] = juvenile hormone esterase (JHE) activity assay, hydrolysis of 3H-juvenile hormone to juvenile hormone acid; assay type: biochemical; conditions: purified recombinant protein from S. frugiperda:pVL-nfE91600 supernatant, size exclusion fractions
Protocol: Unlabeled juvenile hormone (JH; available from ICN Biomedicals, Inc., Aurora, Ohio) was diluted in hexane to concentration of about 0.025 M. Labeled 10-^3H-juvenile hormone (^3H-JH; available from Dupont-NEN) was diluted in hexane to concentration of about 80,000 cpm/μl. A JH substrate mixture was prepared by mixing about 20 μl of unlabeled JH with about 80 μl of ^3H-JH (about 5 μCi) in a 4 ml screw cap vial. The substrate mixture was then covered with nitrogen (i.e., “blanketed”) and the solvent contained in the mixture was evaporated by heating the mixture at 35° C. When just dry, about 1 ml of absolute anhydrous ethanol (final concentration 5×10^−4 M, or 6400 cpm/μl) was added to the vial. The substrate mixture was then stored at −20° C.
About 5 equivalents of each tissue (about 5 μl of protein) was added into the bottom of a small glass autosampler vial. About 95 μl of Tris-buffered saline (TBS) was added to each vial to bring the final volume in each vial to about 100 μl. Two control samples were also prepared by adding 100 μl TBS to two separate vials. […]
To measure labeled juvenile hormone acid, about 250 μl isooctane was added to each vial. […] The amount of ^3H-juvenile hormone acid contained in each vial was determined using a Beckman LS-1801 liquid scintillation counter (available from Beckman, Fullerton, Calif.).

[2] = general carboxylesterase (CE) activity assay, hydrolysis of α-napthyl acetate, Fast Blue, 590 nm; assay type: biochemical; conditions: purified recombinant protein from S. frugiperda:pVL-nfE91600 supernatant, size exclusion fractions
Protocol: Tissue samples and soluble extracts were prepared as described above in Example 1, except not labelled, from unfed (UF) and bovine blood-fed 1st instar flea larvae, bovine blood-fed 3rd instar flea larvae, bovine blood-fed prepupal flea larvae, unfed whole adult fleas, cat blood-fed adult (ACF) whole fleas, cat blood-fed adult fleas that have had their heads and midguts removed (referred to herein as fed adult partial fleas), unfed adult flea midguts and cat blood-fed adult flea midguts. About 5 tissue equivalents of each tissue were assayed for general CE activity using the following method. Tissue samples of about 5 μl were added to separate wells of flat-bottomed microtiter plate (available from Becton Dickinson, Lincoln Park, N.J.). A control well was prepared by adding about 5 μl of Tris buffer to an empty well of the plate. About 95 μl of 25 mM Tris-HCl (pH 8.0) was then added to each sample to increase the volume in each well to about 100 μl. About 100 μl of 0.25 mM α-napthyl acetate (available from Sigma, St. Louis, Mo.) dissolved in 25 mM Tris-HCl (pH 8.0) was then added to each well. […]
The microtiter plate was then analyzed using a Cambridge Technology, Inc. (Watertown, Pa.) model 7500 Microplate Reader set to 590 nm. The absorbance value for the control sample was subtracted from absorbance values of experimental samples, such that the background value was zero.

B1: PfE9528: full-length flea esterase protein of about 528 amino acids, SEQ ID NO:37, encoded by nfE92007 (protein, listed as Ctenocephalides felis)
chain: MADLQVTLLQGTLKGKEQISEKGNVFHSYSGIPYAKPPVGDLRFKPPQPAEPWSGVLDASKEGNSCRSVHFIKKIKVGAEDCLYLNVYVPKTSEKSLLPVMVWIHGGGFFMGSGNSDMYGPEYLMDYGIVLVTFNYRLGVLGFLNLGIEEAPGNVGLMDQVEALKWVKNNIASFGGDPNNVTIFGESAGGASVHYLMLSDLSKGLFHKAISQSGSAFNPWALQHDNNKENAFRLCKLLGHPVDNETEALKILRQAPIDDLIDNRIKPKDKGQLIIDYPFLPTIEKRYQNFEPFLDQSPLSKMQSGNFTKVPFICGYNSAEGILGLMDFKDDPNIFEKFEADFERFVPVDLNLTLRSKESKKLAEEMRKFYYQDEPVSSDNKEKFVSVISDTWFLRGIKNTARYIIEHSSEPLYLYVYSFDDFGFLKKLVLDPNIEGAAHGDELGYLFKMSFTEFPKDLPSAVVNRERLLQLWTNFAKTGNPTPEINDVITTKWDKATEEKSDHMDIDNTLRMIPDPDAKRLRFWNKFL
juvenile hormone esterase activity [1]: juvenile hormone esterase activity | carboxylesterase activity [2]: carboxylesterase activity
